In test [1] the target is human IgG (human). Briefly: BLI (Octet), gEgI on Ni-NTA sensor, hIgG in solution. For orientation: BLI is a label-free optical method that tracks binding on a fibre tip over time.
The target in test [2] is human IgG (human). Briefly: BLI Octet, construct on Ni-NTA sensor, hIgG in solution.
Test [3] has as its target human IgG (human). Briefly: BLI (Octet), gEgI on Ni-NTA sensor, hIgG in solution. This is another data set of the same source.
In test [4] the target is Human IgG isotype control (ThermoFischer Scientific, ref 12000C) (human). Briefly: BLI, gEgI on Ni-NTA tips, hIgG in solution.

“And” between values parts separate entries of the source, which are not always exact repeats. Equal entries are not always repeated. Where two headings read alike, the source gives them in different places. A value given as a limit tells only on which side of the number the result lay.

As usually defined, the Kd is the concentration at which binding is half-saturated. A low value points to a tighter complex. One may read the koff as the rate constant with which the complex falls apart. A word on the kon: it is the rate constant with which the complex forms. The low end stands for slow association, the high end for fast association. In the test with human IgG (human) [1], “HSV2-gE_A246W R320G_gI (from UniProt P89475 21-416; P06764 21-256) (receptor)” registered a Kd of 0.001 nM and a Response of 0.0639 nm. In the test with human IgG (human) [2], this substance registered a dissociation constant Kd below 0.001 nM, a Response (nm) of 0.0639 nm, a koff below 1e-07 s⁻¹ and a kon of 3430 M⁻¹ s⁻¹.
“HSV2-gE_A246W R320T_gI (from UniProt P89475 21-416; P06764 21-256) (receptor)”: in the test with human IgG (human) [1], the Kd came to 0.001 nM and the Response came to 0.0712 nm. Moreover, in the test with human IgG (human) [2], the Kd is below 0.001 nM, the Response (nm) amounted to 0.0712 nm, the off-rate (koff) is below 1e-07 s⁻¹ and the kon is 1510 M⁻¹ s⁻¹.
As to “HSV2-gE_A246W-R320D_gI (from UniProt P89475 21-416; P06764 21-256) (receptor)”, in the test with human IgG (human) [1], the Kd was 0.001 nM and the Response worked out at 0.0712 nm.
As for “HSV2-gE_A246W_gI (from UniProt P89475 21-416; P06764 21-256) (receptor)”, in the test with human IgG (human) [1], the dissociation constant (Kd) worked out at 6910 nM and the Response worked out at 0.231 nm. Moreover, in the test with human IgG (human) [2], the dissociation constant Kd came out at 6910 nM, the Response (nm) is 0.231 nm, the off-rate constant (koff) was 0.00621 s⁻¹ and the association rate constant (kon) came out at 898 M⁻¹ s⁻¹.
In the test with human IgG (human) [1], “HSV2-gE_A248G V340W_gI (from UniProt P89475 21-416; P06764 21-256) (receptor)” gave a Kd of 39200 nM and a Response of 0.0826 nm. Moreover, in the test with human IgG (human) [2], the Kd was 39200 nM, the Response (nm) amounted to 0.0826 nm, the koff amounted to 0.0107 s⁻¹ and the kon was determined as 273 M⁻¹ s⁻¹.
As to “HSV2-gE_A248K V340W_gI (from UniProt P89475 21-416; P06764 21-256) (receptor)”, in the test with human IgG (human) [1], the dissociation constant Kd was 0.001 nM and the Response is 0.0613 nm. Besides, in the test with human IgG (human) [2], the dissociation constant (Kd) was below 0.001 nM, the Response (nm) worked out at 0.0613 nm, the koff was below 1e-07 s⁻¹ and the kon came to 3780 M⁻¹ s⁻¹.
For the substance “HSV2-gE_A248T F322A_gI (from UniProt P89475 21-416; P06764 21-256) (receptor)”, in the test with human IgG (human) [1], the dissociation constant (Kd) was 7010 nM and the Response amounted to 0.167 nm. Moreover, in the test with human IgG (human) [2], the dissociation constant Kd amounted to 7010 nM, the Response (nm) was 0.167 nm, the koff is 0.00629 s⁻¹ and the on-rate constant (kon) is 897 M⁻¹ s⁻¹.
In the test with human IgG (human) [1], “HSV2-gE_A248T V340M_gI (from UniProt P89475 21-416; P06764 21-256) (receptor)” gave a Kd of 0.001 nM and a Response of 0.108 nm. In the test with human IgG (human) [2], this substance gave a Kd below 0.001 nM, a Response (nm) of 0.108 nm, an off-rate constant (koff) below 1e-07 s⁻¹ and a kon of 4440 M⁻¹ s⁻¹.
In the case of “HSV2-gE_A248T V340W_gI (from UniProt P89475 21-416; P06764 21-256) (receptor)”, in the test with human IgG (human) [1], the Kd was 0.001 nM and the Response turned out to be 0.0605 nm. In the test with human IgG (human) [2], the Kd is below 0.001 nM, the Response (nm) came to 0.0605 nm, the koff was below 1e-07 s⁻¹ and the kon came out at 3020 M⁻¹ s⁻¹.
In the test with human IgG (human) [1], “HSV2-gE_A248T_gI (from UniProt P89475 21-416; P06764 21-256) (receptor)” came in with an equilibrium dissociation constant (Kd) of 12200 nM and a Response of 0.123 nm. In the test with human IgG (human) [2], this substance returned a Kd of 12200 nM, a Response (nm) of 0.123 nm, an off-rate constant (koff) of 0.00574 s⁻¹ and an on-rate constant (kon) of 470 M⁻¹ s⁻¹.
Regarding “HSV2-gE_H245A R320D_gI (from UniProt P89475 21-416; P06764 21-256) (receptor)”, in the test with human IgG (human) [1], the Kd worked out at 6420 nM and the Response stood at 0.116 nm. In the test with human IgG (human) [2], this substance displayed a Kd of 6420 nM, a Response (nm) of 0.116 nm, a koff of 0.00704 s⁻¹ and a kon of 1100 M⁻¹ s⁻¹.
In the test with human IgG (human) [1], “HSV2-gE_H245A R320G_gI (from UniProt P89475 21-416; P06764 21-256) (receptor)” gave an equilibrium dissociation constant (Kd) of 1410 nM and a Response of 0.192 nm. Also, in the test with human IgG (human) [2], the Kd came out at 1410 nM, the Response (nm) was determined as 0.192 nm, the off-rate (koff) was determined as 0.00589 s⁻¹ and the kon turned out to be 4190 M⁻¹ s⁻¹.
In the case of “HSV2-gE_H245A R320T_gI (from UniProt P89475 21-416; P06764 21-256) (receptor)”, in the test with human IgG (human) [1], the Kd turned out to be 1160 nM and the Response is 0.23 nm. In the test with human IgG (human) [2], this substance displayed a Kd of 1160 nM, a Response (nm) of 0.23 nm, an off-rate (koff) of 0.00537 s⁻¹ and a kon of 4620 M⁻¹ s⁻¹.
With “HSV2-gE_H245D_gI (from UniProt P89475 21-416; P06764 21-256) (receptor)”, in the test with human IgG (human) [1], the Kd turned out to be 17000 nM and the Response was 0.133 nm. In the test with human IgG (human) [2], this substance yielded a dissociation constant (Kd) of 17000 nM, a Response (nm) of 0.133 nm, a koff of 0.00772 s⁻¹ and a kon of 453 M⁻¹ s⁻¹.
In the case of “HSV2-gE_H245E_gI (from UniProt P89475 21-416; P06764 21-256) (receptor)”, in the test with human IgG (human) [1], the Kd worked out at 11900 nM and the Response is 0.168 nm. Also, in the test with human IgG (human) [2], the dissociation constant Kd was determined as 11900 nM, the Response (nm) worked out at 0.168 nm, the koff is 0.00705 s⁻¹ and the on-rate constant (kon) came to 595 M⁻¹ s⁻¹.
In the case of “HSV45 (HSV2- gE_P317R_gI) (from UniProt P89475 21-416; P06764 21-256) (receptor)”, in the test with human IgG (human) [3], the equilibrium dissociation constant (Kd) is 192 nM and 240 nM; the Response is 0.181 nm and 0.119 nm; the koff was 0.00137 s⁻¹ and 0.00156 s⁻¹; the kon was 7110 M⁻¹ s⁻¹ and 6520 M⁻¹ s⁻¹. In test [4], this substance returned a Kd of 1510 nM, a Relative Affinity (%) compared to control construct HSV34 of 8%, an off-rate constant (koff) of 0.00347 s⁻¹ and an on-rate (kon) of 2340 M⁻¹ s⁻¹.
Take “HSV57 (HSV2- gE_P319D_gI) (from UniProt P89475 21-416; P06764 21-256) (receptor)”: in test [4], the Kd turned out to be 9580 nM, the Relative Affinity (%) compared to control construct HSV34 was determined as 1%, the koff worked out at 0.00403 s⁻¹ and the on-rate constant (kon) was determined as 362 M⁻¹ s⁻¹.
In the same order, the values of “HSV58 (HSV2- gE_P319S_gI) (from UniProt P89475 21-416; P06764 21-256) (receptor)” are 116 nM, 100%, 0.000604 s⁻¹ and 5290 M⁻¹ s⁻¹.
In the same order, the values of “HSV59 (HSV2- gE_S338D_gI) (from UniProt P89475 21-416; P06764 21-256) (receptor)” are 890 nM, 13%, 0.00128 s⁻¹ and 1550 M⁻¹ s⁻¹.
In the same order, the values of “HSV60 (HSV2- gE_N241A_gI) (from UniProt P89475 21-416; P06764 21-256) (receptor)” are 81.9 nM, 142%, 0.000727 s⁻¹ and 8990 M⁻¹ s⁻¹.
Consider “HSV61 (HSV2- gE_R320D_gI) (from UniProt P89475 21-416; P06764 21-256) (receptor)”, for which, in test [4], the Kd was 2400 nM, the Relative Affinity (%) compared to control construct HSV34 came to 5%, the koff came out at 0.0012 s⁻¹ and the on-rate (kon) was determined as 514 M⁻¹ s⁻¹.
In the case of “HSV62 (HSV2- gE_N241A-R320D_gI) (from UniProt P89475 21-416; P06764 21-256) (receptor)”, in test [4], the equilibrium dissociation constant (Kd) worked out at 4200 nM, the Relative Affinity (%) compared to control construct HSV34 was 3%, the off-rate (koff) came out at 0.00129 s⁻¹ and the kon amounted to 317 M⁻¹ s⁻¹.
With “HSV63 (HSV2- gE_N241A-P319D_gI) (from UniProt P89475 21-416; P06764 21-256) (receptor)”, in test [4], the off-rate constant (koff) is below 1e-07 s⁻¹ and the kon amounted to 3720 M⁻¹ s⁻¹.

These data come from patent US20220273789A1.
